Results: paper PMC8353492

Key:
[1] = molecular target: NOX2 phox complex (rhodamine-tagged cytochrome b558 (gp91 plus p22), p40, p47 and p67), cell-free system (UniProt P04839); assay: rhodamine fluorescence intensity over time; fully preactivated (GTP-bound) Rac added to the cell-free NOX2 phox complex with rhodamine-tagged cytochrome b558 (subunits 100 nM), SDS 100 μM; 10 mM MgCl2, 50 mM KCl, 1 mM NaCl, 0.2 mM NADPH, 10 mM GTP, 10 mM Mops pH 7.4
[2] = molecular target: NOX2 phox complex (rhodamine-tagged cytochrome b558 (gp91 plus p22), p40, p47 and p67), cell-free system (UniProt P04839); assay: rhodamine fluorescence intensity over time; initially inactive (GDP-bound) Rac added to the cell-free NOX2 phox complex with rhodamine-tagged cytochrome b558 after a fraction of preactivated wt Rac (∼2 mol %); SDS 100 μM; assay buffer with NADPH and GTP, pH 7.4; also with H2O2 (unaffected) or ascorbic acid 10 mM (enhanced)

Row | fold slower binding than wt Rac [1] [fold] | fold slower rate of binding than wt Rac [2] [fold] | Substance
1 | 1.5 | 1.5 | K132E Rac (from UniProt P63000 1-192) (natural protein)
2 | 1.5 | 1.5 | L134R Rac (from UniProt P63000 1-192) (natural protein)
